Results published in the RNAGym collection of RNA variant scans (doi:10.1073/pnas.2313332121).

B1: TPR t1 (parent)
chain: GACCAAUCUGCCCUCAGAGCUCGAGAACAUCUUCGGAUGCAGAGGAGGCAGGCUUCGGUGGCGCGAUAGCGCCAACGUCCUCAACCUCCAAUGCAUCCCACCACAUGAUGAUGCCUGAAGAGCCUUGGUUUUUUG

Variants of: B1
Assay: polymerase ribozyme fitness, log enrichment relative to wild type (log ratio); higher = more active; in vitro selection for triplet polymerase activity
Procedure, shortened: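 Streptavidin-bead capture of gel-excised extended constructs, followed by RT-PCR, closed a single triplicate in vitro selection round. That round began by annealing PCR-built, transcribed mutant libraries of each subunit of a heterodimeric triplet polymerase ribozyme with a biotinylated primer, the partner subunit and triplets, then incubating them frozen at −7 °C. After Illumina sequencing of inputs and outputs, genotypes needed ≥10 input reads and ≥1 read per output. Fitness is the base-2 logarithm of genotype enrichment over wild-type enrichment, using inverse-variance-weighted replicate averages.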

Variant | polymerase ribozyme fitness (log ratio)
GACCAAUCUGCCCUCCGAGCUCGAGAACAUCUUCGGAUGCAGAGGAGGCAGGCUUCGGUGGCGCGAUAGCGCCAACGUCCUCAACCUCCAAUGCAUCCCACCACAUGAAGAUGCCGGAAGAGCCUUGGUUUUUUG | -6.51
GACCAAUCUGCCCUCCGAGCUCGAGAACAUCUCCGGAUGCAGAGGAGGCAGGCUUCGGUGGGGCGAUAGCGCCAACGUCCACAACCUCCAAUGCAUCCCACCACAUGGUGAUGCCUGAAAAGGCUUGGUUUUUUG | -6.36
GACCAAUCUGCCCUCCGAGCUCGAGAACAUCUUCGGAUGCAGAGGAGGCAGGCUUCGGUGCCGCGAUAUCGCCAACGUCCACAACCUCCAAUGCAUCCCACCACAUGAUGAUGCCUGAACAGCCUUGGUUUUUUG | -3.32
GACCAAUCUGCCCUCCGAGCUCGAGAACAUCUUCGGAUGCAGAGGAGGCAGGCUUCGGUGGCGCGAUAGCGCCAACGUCCUCAACCUCCAAUGCAUCCCAUCACAUGAUGAUGCCUGAAGAGCCUUGGUUUUUUG | -2.45
GACCAAUCUGCCCUCCGAGCUCGAGAACAUCUUCGGAUGCAGAGCAGGCAGGCUUCGGUGGCACGAUAGCGCCAACGUCCUCAACCUCCAAUGCAUCCCCCCACAUGAUGACGCCUGAAGAGCCUUGGGUUUUUG | -2.73
GACCAAUCUGCCCUCGGAGCUCGAGAACAUCUUCGGAUGCAGAGGAGGCUGGAUUCGGUGGCUCGAUAGCGCCAACGUCCUCAACCUCCAAUGCAUCCCCCCACAUGAUGAUGGCUGAAGCGCCUUGGUUUUUUG | -7.46
GACCAAUCUGCCCUCGGAGCUCGAGAACAUCUUCGGAUGUAGUGGAGGCAGGCUUCGGUGGCGCGAUAGCGGCAACGUCCUCAACCUCCAAUGCAUCCCACCACAUGAUGAUGCCUGAAGAGCCUUGGUUUUUUG | -3.42
GACCAAUCUGCCCUCGGCGCUCGAGAACAUCUUCGGAUGCAGAGGAGGCAGGCGUCGGUGGCGCGAUAGCGCCAACGUCCUCAACCUCCAAUGCAUCCCACCACAUGAUGAUGCCUGAAGAGCCUUGGUUUUUUG | -0.225
GACCAAUCUGCCCUCGGAGCUCGAGAACAUCUUCGGAUGCAGAGGAGGCAGGCUUCGGUGGCGCGAUAGUGCCAACGUCCUGAACCUCCAAUGCAUCCCACCACAUGAUGAUGCCUGAAGAGCCUUGGUUUUUUG | -2.05
GACCAAUCUGCCCUCGGAGCUCGAGAACAUCUUCGGUUGCAGAGGAGGCAGGCUUCGGUGGCGCGAUAGCUCCAACGUCCUCAACCUCCGAUGCAUCCCACCACAUGAUGAUGCCUGAAGAGCCUUGGUUUUUUG | -1.9
GACCAAUCUGCCCUCGGAGCUCGAGAACAUCUUCGGAUGGAGAGGAGGCAGGCUUCGGUGGCGCGAUAGCGCCAACGUCCUCAACCUCCAAUGCAUCCCACCACAUGAUGAUGCCUGAAGAGCAUUGGUUUUUUG | 0.0509
GACCAAUCUGCCCUCCGAGCUCGAGAACAUCUUCGGAUGCAGAGGAGGCAGGCUUCGGUGGCGCGAUAGCGCCAACCUCCUCAACCUCCAAUGCAUCCCACCACAUGAUGAUGCCUGAAUAGUCUUGGUUUUUUG | -2.57
GACCAAUCUGCCCUCGGAGCUCGAGAACAUCUUCGGAUGCAGAGGAGGCUGGCUUCGGUGGCGCGAUAGCGCCAACGUCCUCAACCUCCAAUGCAUCCCACCACAUGAUGAUGCCUGAAGAGCCUUGGUUUUUUG | -2.5
GACCAAUCUGCCCUCGGAGCUCGAGAACAUCUUCGGAUGCAGAGGAGGGAUGCUUCGGUGGCGCGAUAGCGCCAACGUCCUCAACAUCCAAUGCAUCCCACCACAUGAUGAUGCCUGAAGAGCCUCGGUUUUUUG | -4.58
GACCAAUCUGCCCUCCGAGCUCGAGAACAUCUUCGGAUGCAGAGGAGGCAGGCUUCGGUGGCGCGAUAGCGCCAACGUCCUCAACCUCCAAUGCAUCCCACCACAUGAUGAGGCCUGAAGAGCCUUGGUUUUUUG | -2.88
GACCAAUCUGCCCUCCGAGCUCGAGAACAUCUUCGGAUGCAGAGGAGGCAGGCUUCGGUGGCGCGAUAGCGCCAACGUCCUCAACCUCCAAUGCAUCCCACCACAUGAUGAUGCCUGAAGAGCCUUGGUUUAUUG | -2.47
GACCAAUCUGCCCUCCGAGCUCGAGAACAUCUUCGGAUGCAGAGGAGGCAGGCUUCGGUGCCGCGAUAGCGCCAACGUCCUCAACCUUCAAUGCAUCCCACCACAUGAUGAUGCCUGAAGAGCCUUGGUUUUUUG | -4.85
GACCAAUCUGCCCUCGGAGCUCGAGAACAUCUUCGGAUGCUGAGGAGGCAGGCUUCGGUGGCGCGAUAGCGUCAACGUCCUCAACCUCCAAUGCAUCCCACCACACGAUGAUGCCUGAACAGCCUUGGUUUUUUG | -1.7
GACCAAUCUGCCCUCGGAGCUCGAGAACUUCUUCGGAUGAAGAGGAGGCAGGCUUCGGUGUCGCGAUAGCGCCAACGUCCUCAACCUCCAAUGCAUCCCACCACAUGAUGAUGCCUGAAGAGCCUUGGUUUUUUG | -4.63
GACCAAUCUGCCCUCGGAGCUCGAGAUCAUCUUCGGAUGCAGAGGAGGCAGGCUUCGGUGGCGCGAUAGCGCCAACGUCCUCAACCUCCAAUGCAUCCCACCACAUGAUGAUGCCUGAAGAGCCUUGGUUUUUUG | -4.63
GACCAAUCUGCCCUCCGAGCUCGAGAACAUCUUCGGAUGCAGACGAGGCAGGCUUCGGUGGCGCGAUAGCGCAAACGUCCUCAACUUCCAAUGCAUCCCACCACAUGAUGAUGCCUGAAUAGCCUUGGUUUUUUG | -2.98

Variant | polymerase ribozyme fitness (log ratio)
GACCAAUCUGCCCUCGGAGCUCGAGAACAUCUUCGGAUGCAGAGGAGGCAGGCUUCGGUGGCGCGAUAGCGGCAACGUCCUCAACCUCCAAUGCAUCCCACCACAUGAUGAUGCCUGAAGAGCCUUGGUUUUUUG | -1.66
GACCAAUCUGCCCUCGGAGCUCGAGAACAUCUUCGGAUGCAGAGGAGGAAGGCUUCGGUGGCGCGAUAGCGCCAACGUUCUCAACCUCCAAUACAUCCCACCACAUGAUGAUGCCUUAAGAGGCUUGGUUUUUUG | -2.9
GACCAAUCUGCCCUCGGAGCUCGAGAACAUCUUAGGAUGCAGAGGAGGCAGGCUUCGGUGGCGCGAUAGCGCCAACGUCCUCAACCUCCAAUGCAUCCCACCACAUGAUGAUGCCUGAAGAGCCUUGGUUUUUUG | -3.22
GACCAAUCUGCCCUCCGAGCUCGAGAACAUCUUCGGAUGCAGAGGAUGCAGGCUUCGGUGGCGCGAUAGCGCCAACGUCCUCAACCUCCAAUGCAUCCCACCACAUGAUGAUGCCUGAAGAGCCUUGGUUUUUUG | -3.93
GACCAAUCUGCCCUCGGAGCUCGAGAACAUCUUCGGAUGCAGAGGAGGCAGGGUUCGAUGGCGCGAUAGCGCCAACGUCCUCAACCUCCACUGCAUCCCACCACAUGAUGAUGCCUGAUGAGCCUUGGUUUUUUG | -4.1
GACCAAUCUGCCCUCCGAGCUCGAGAACAUCUUCGGAUGCAGAGGAGGCAGACUUCGGUAGCGCGAUAGCGCCAACGUCCUCAACCUCCAAUGCAUCCCACCACAUGAUGAUGCCUGAAGAGCCUUGGUUUUUUG | -2.03
GACCAAUCUGCCCUCCGAGCUCGAGAACAUCUUCGGAUGCAGAGGAGGCAGGCUGCGGUGGCGCGAUAGCGCCAACGUCCUCAACCUCCAAUGCAUCCCACCACAUGAUGAUGCCUGAAGAGGCUUGGUUUUUUG | -0.307
GACCAAUCUGCCCUCCGAGCUCGAGAACAUCUUCGGAUGCAGAGGAGGCAGGCUUCGGUGGCGCGAUAGCGCCAACGUCCUCAACCUCCAAUGCAUCCCAACACAUGAUGAUGCCUGAAAAGCCUUGGUUUUUUG | -3.59
GACCAAUCUGCCCUCCGAGCUCGAGAACAUCUUCGGAUGCAGAUGAGGCAGGCUUCGGUGGCGCGAUAUCGCCAACGUCCUCAACCUCCAAUGCAUCCCACCACAUGAUGAUGCCUGAAGAGCCGUGGUUUUUUG | -2.18
GACCAAUCUGCCCUCGGCGCUCGAGAACAUCUUCGGAUGCAGAGGAGGCAGGCGUCGGUGGCGCGAUAGCGCCAACGUCCUCAACCUCCAAUGCAUCCCACCACAUGAUGAUGCCUGAAGGGCCUUGGUUUUUUG | 0.49
GACCAAUCUGCCCUCGGAGCUCGAGAACAUCUUCGGAUGCAGAGGAGGCAGGCUUCGGUGGAGCGAUAGCGCCAACGUCCUCAACCUCCAAUGCAUUCCACCACAUGAUGAUGCCUGAAGAGCCUUGGUUUUUUG | -3.6
GACCAAUCUGCCCUCGGAGCUCGAGAACAUCUUCGGAUGCAGAGGAGGCAGGCUUCGGUGGCGCGAUAGCGCCAACGUCCUCAACCUCCAUUGCAUCCCACCACAUGAUGAUUCCUGAAGAGCCUUGGUUUUUUG | -2.28
GACCAAUCUGCCCUCGGAGCUCGAGAACAUCUUCGGAUGUAGAGGAGGCUGGCUGCGGUGGCGCGAUAGUGCCAACGUUCUCAACCUCCAACGCAUCCCACCACAUGAUGAAGCCUGAAGAGCCUUGGUUUUUUG | -7.45
GACCAAUCUGCCCUCGGAGCUCGAGAACAUCUUCGGAUGCAGAGGAGGCAGGCUUAGGUGGCGCGAUAGCUCCAACGUCCUCAACCUCCAAUGCAUCCCACCACAUGAUGAUGCCUGAAGAGCAUUGGUAUUUUG | 0.162
GACCAAUCUGCCCUCCGAGCUCGAGAACAUCUUCGGAUGCAGAGGAGGCAGGCUUCGGUGGCGCGAUAGCGCCAACUUCCUCAACCUCCAAUGCAUCCCACCACAUGAUGAUGCCUGAGGAGCCUUGGUUUUUUG | 0.8
GACCAAUCUGCCCUCCGAGCUCGAGAACAUCUUCGGAUGCAGAGGAGGCAGGCUUCGGUGGCGCGAUAGCGCCAACGUCCUCAACCCCCAAUGCAUCCCACCACAUGAUGAUGCCUGAAGAGCCUUGGUUUUUUG | -2.31
GACCAAUCUGCCCUCCGAGCUCGAGAACAUCUUCGGAUGCAGAGUAGGCAGGCUUCGGUGGCGCGAUAGCGCCAACGUCCUCAACCUCCAAUGCAUCCCACCACAUGAUGAUGCCUGAAGAGCCUUGGUUUUUUG | -4.66
GACCAAUCUGCCCUCCGAGCUCGAGAACAUCUUCGGAUGCAGAGGAGGCAGGCUUCGGUGGCGCGAUAUCGCCAACGUCCUCAACCUCCAAUGCAUCCCACCACAUGAUGAUGCCUGAAGAGCCUUGGUUUUUUG | -1.81
GACCAAUCUGCCCUCGGAGCUCGAGAACAUCUUCGGGUGCAGAGGAGGCAGGCUUCGGUGGCGCGAUAGCGCCAACGUCCUCAACCUCCAAUGCAUCCCACCACAUGAUGAUGCCUGAAGAGCCUUGGUUUUUUG | -1.71
GACCAAUCUGCCCUCCGAGCUCGAGAACAUCUUCGGAUGCAGAGGAGGCAGGCUUCGGUGGCGCGAUAGCGCCAACGUCCUCAACCUCCAAUGCAUCCCACCACAUGAUGAUGCCUGAAGAGCGUUGGUUUUUUG | 1
GACCAAUCUGCCCUCGGAGCUCGAGAACAUCUUCGGAUGCAGAGGAGGCAGGCUUAGGUGGCGCGAUAGCGACAACGUCCUCAACGUCCAAUGCAUCCCACCACAUGAUAAAGCCUGAAGAGCCUUGGUUUUUUG | -3.93
